Source: US20230159645A1 (MERUS N V, published 2023)

What was measured:
[1] = biological target: T1, human TGF-βRII (human, UniProt P37173 23-567); assay: cell-based or functional assay
T1 chain: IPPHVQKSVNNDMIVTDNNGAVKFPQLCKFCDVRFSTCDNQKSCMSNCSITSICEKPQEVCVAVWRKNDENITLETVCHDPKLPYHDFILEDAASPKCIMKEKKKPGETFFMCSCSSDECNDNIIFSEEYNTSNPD

[2] = biological target: T1, human TGF-βRII; assay: cell-based or functional assay

- Fold difference pSMAD PD-1^null vs PD-1^+ [1]: 1.3 fold
- HEK-BLUE-PD-1 TGF-β Reporter Assay, HEK-Blue TGF-β cells [2]: 0.806
- HEK-BLUE-PD-1 TGF-β Reporter Assay, HEK-Blue TGF-β-PD-1+ cells [2]: 0.655
B1: Reference TGF-βRII antibody TGF1 analog (antibody, human IgG1, kappa, V domains shown)
VH: QLQVQESGPGLVKPSETLSLTCTVSGGSISNSYFSWGWIRQPPGKGLEWIGSFYYGEKTYYNPSLKSRATISIDTSKSQFSLKLSSVTAADTAVYYCPRGPTMIRGVIDSWGQGTLVTVSS
VL: EIVLTQSPATLSLSPGERATLSCRASQSVRSYLAWYQQKPGQAPRLLIYDASNRATGIPARFSGSGSGTDFTLTISSLEPEDFAVYYCQQRSNWPPTFGQGTKVEIKR
